From paper PMC3152652

Experiments:
[1] = HEK 293 co-expression, Western blot of conditioned medium; settings: glycan lost; control: wild type
[2] = HEK 293, Western blot densitometry, pro-BNP to BNP conversion; settings: glycan lost; control: wild type

Substance: pro-BNP (pro-B-type natriuretic peptide): T71A
- other: proteolytic processing [1]: increases
- other: proteolytic processing [2]: increases
